Patent US20030161791A1, “Water-soluble polymer conjugates of retinoic acid” (priority 2001, published 2003)

Experiments:
[1] = Hydrolysis rate of PEG-ATRA ester conjugate in phosphate buffer; type: physicochemical; settings: phosphate buffer 0.1M, pH 7.0, 0.5 wt %, pseudo-first-order kinetics
Method: The rate of hydrolysis in buffer of an exemplary PEG-ATRA conjugate in accordance with the invention was determined at two different temperatures, room temperature and body temperature.
MPEG 5 kDa ATRA (see Example 1) was dissolved in phosphate buffer (0.1M, pH 7.0) at a concentration of 0.5 wt % at temperatures of 23° C. and 37° C. At timed intervals, aliquots were removed for analysis by analytical reverse phase HPLC. The hydrolysis half-lives were obtained using pseudo-first-order kinetics. […] Thus, these conjugates can be characterized as water-soluble prodrugs forms of the retinoid.

[2] = Recovery of ATRA and conjugate in plasma and lung tissue after intratracheal instillation in male rats; type: in vivo, Sprague Dawley Rats
Method: The following study in rats was conducted to determine plasma and lung tissue concentrations of non-PEGylated all-trans retinoic acid (ATRA control) versus a PEGylated all-trans retinoic acid, mPEG (5 kD)ATRA Ester Conjugate, after intratracheal instillation to male rats.
Animals: Hilltop Lab Animals Inc (P.O. Box 183, Scottdale, Pa. 15683) supplied pre-cannulated jugular vein catheter [JVC]) Sprague Dawley Rats (350-375 grams). The test system included 2 male rats randomly chosen for each of the 6 test groups.
ATRA and PEG-ATRA Samples: Non-PEGylated All-Trans Retinoic Acid was supplied as a powder containing 50% ATRA by weight (Control Article). The powder was stored at −20° C. and protected from light. Methoxy PEG (5 kD) ATRA ester conjugate (Test Article) was provided as a powder containing 5% ATRA by weight which was stored at −20° C. and protected from light.
ATRA Stock Solution/Control (2.0 mg/ml Stock): 3.0 mL of PBS was added to 6.0 mg of the ATRA powder. This solution was dosed as a suspension to the rats after sonication and vortexing.
Methoxy PEG (5 kD) ATRA ester conjugate (20.0 mg/mL Stock): 3.0 mL of PBS was added to 60.0 mg of the methoxy PEG (5 kD) ATRA ester conjugate powder.
Intratracheal Instillation: Administration of the control and test articles was achieved by intratracheal instillation under yellow lighting. The rats were lightly anesthetized using inhaled 3.0-5.0% isoflurane mixed with oxygen in a plexiglass anesthesia chamber. The dose was administered by inserting a gavage needle fitted with a 1 mL syringe into the mouth of the rat down the trachea to just above the carina. The dose was administered into the lungs utilizing this method, and then the gavage needle was removed. The animal was placed back in its cage and allowed to recover from the anesthesia on its own after the dosing procedure.
Rats were dosed IT with 354 μg (1.2 μmole) of RA or […] (1 μmole) ATRA equivalent of mPEG5K-ATRA.
Blood Collection: Predose blood samples of approximately 3.0 ml were collected from the jugular vein catheter into heparinized plasma tubes. At the designated sacrifice time for each animal a surgical plane of anesthesia was induced by using inhaled 3.0-5.0% isofluorane mixed with oxygen. […]
ATRA and PEG-ATRA were extracted from whole rat lung by first weighing and transferring the rat lung to an amber vial and cutting the lung into small pieces. […] The sample was then analyzed by HPLC.
Sample Analysis: Plasma and lung tissue samples were analyzed for all-trans retinoic acid concentrations by reverse-phase high performance liquid chromatography (HPLC) procedures for the lung tissue and by a liquid chromatography tandem mass spectrophotometer (LC-MS-MS) technique for the plasma samples. […]

[3] = Stability (degradation) of PEG-retinoid compositions versus unmodified parent retinoid; type: physicochemical; settings: without free radical scavenger
Excerpt: Additionally, a composition in accordance with the invention will preferably contain a free radical scavenger such as butylatedhydroxytoluene (BHT), ascorbic acid (vitamin C), or alpha tocopherol […]. […] Incorporation of a free radical scavenger in the composition was effective to substantially reduce or effectively eliminate free-radical induced degradation of the conjugate.

Molecule	half-life (t 1/2) of the hydrolysis ([1]; 23° C.)	half-life (t 1/2) of the hydrolysis ([1]; 37° C.)	plasma retinoic acid (ATRA) concentration ([2]; rat plasma, one-hour timepoint, LC-MS-MS)	retained in the lung ([2]; rat, for at least up to 2 hours post administration, HPLC of lung tissue)	stability of the composition relative to compositions of the unmodified parent retinoid [3]	concentration at 1 h ([2]; male, Sprague Dawley, other: intratracheal instillation, 354 μg, rat plasma, one-hour timepoint, LC-MS-MS, read-out: plasma retinoic acid (ATRA) concentration) [ng/mL]	retention in the lung compared with pegylated / unmodified counterpart ([2]; rat, lung tissue (FIG. 3))
mPEG (5 kDa) ATRA Ester Conjugate [Example 1]	about 3500 hours	about 877 hours	approximately 65 ng/ml	greater than 70 % of the dose	more prone to degradation	–	–
CC1=C(/C=C/C(C)=C/C=C/C(C)=C/C(=O)O)C(C)(C)CCC1 [ATRA, all trans retinoic acid, reference compound]	–	–	–	–	–	~145	to a lesser degree
